IntAct's records for PubMed 19262567

What was measured:
if4e_human EIF4E [1] = molecular target: if4e_human EIF4E (UniProt P06730)
if4e_human EIF4E [2] = molecular target: if4e_human EIF4E (UniProt P06730); remark: listed apart in the source

Sequence of if4e_human EIF4E (P06730 whole entry): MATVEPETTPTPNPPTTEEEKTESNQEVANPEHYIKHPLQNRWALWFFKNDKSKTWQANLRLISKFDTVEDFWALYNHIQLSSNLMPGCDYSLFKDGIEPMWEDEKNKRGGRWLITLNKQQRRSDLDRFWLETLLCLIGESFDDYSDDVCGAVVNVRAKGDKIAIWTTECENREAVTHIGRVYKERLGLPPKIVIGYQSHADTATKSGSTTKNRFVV

Substance	effect of a mutation on the interaction (if4e_human EIF4E [1])	effect of a mutation on the interaction (if4e_human EIF4E [2])
Leucine-rich PPR motif-containing protein, mitochondrial (Homo sapiens) (from UniProt P42704) Y583A	disrupting interaction	
Leucine-rich PPR motif-containing protein, mitochondrial (Homo sapiens) (from UniProt P42704) Y441A		disrupting interaction
